Results from patent publication US10500249B2, “Compositions and methods for preventing or treating diseases, conditions, or processes characterized by aberrant fibroblast proliferation and extracellular matrix deposition” (MOERAE MATRIX, INC., priority 2014, dated 2019).

Experiments:
Assay in all cases: Kinase Profiling Assay
Format in all cases: biochemical
Settings in all cases: 100 μM
PKG1β (h) = biological target: T1, PKG1β (h) (Homo sapiens, UniProt Q13976)
T1 sequence (Q13976 1-686 isoform Q13976-2): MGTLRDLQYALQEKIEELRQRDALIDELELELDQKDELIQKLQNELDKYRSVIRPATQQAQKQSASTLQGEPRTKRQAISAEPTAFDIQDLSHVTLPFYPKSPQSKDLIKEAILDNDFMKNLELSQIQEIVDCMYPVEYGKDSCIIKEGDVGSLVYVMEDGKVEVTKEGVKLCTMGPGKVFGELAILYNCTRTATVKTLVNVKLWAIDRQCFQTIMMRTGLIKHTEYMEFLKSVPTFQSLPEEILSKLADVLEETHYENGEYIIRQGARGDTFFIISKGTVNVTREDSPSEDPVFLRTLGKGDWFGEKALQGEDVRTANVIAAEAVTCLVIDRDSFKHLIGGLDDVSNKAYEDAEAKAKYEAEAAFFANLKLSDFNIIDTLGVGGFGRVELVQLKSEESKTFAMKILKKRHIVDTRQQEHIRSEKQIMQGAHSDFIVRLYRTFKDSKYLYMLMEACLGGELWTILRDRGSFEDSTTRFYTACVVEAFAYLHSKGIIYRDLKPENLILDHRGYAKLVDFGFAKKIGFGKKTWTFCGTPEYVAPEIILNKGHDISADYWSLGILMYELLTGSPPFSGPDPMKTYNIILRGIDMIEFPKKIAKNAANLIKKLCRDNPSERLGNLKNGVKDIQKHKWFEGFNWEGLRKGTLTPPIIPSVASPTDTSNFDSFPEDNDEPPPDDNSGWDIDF
Method: (§1) Every kinase activity measurement was conducted in duplicate.
(§2) Specifically, in these assays, a positively charged substrate is phosphorylated with a radiolabeled phosphate group from an ATP if the kinase is not inhibited by an inhibitor peptide. The positively charged substrate then is attracted to a negatively charged filter membrane, quantified with a scintillation counter, and compared to a 100% activity control.
(§3) In addition to determining the IC50 of the compound, the specificity of MK2 inhibitory peptides was assessed by examining activities of all 266 human kinases available for testing in the Millipore kinase profiling service (Table 1).

SGK3 (h) = biological target: T2, SGK3 (h) (Homo sapiens, UniProt Q96BR1)
T2 sequence (Q96BR1 1-496): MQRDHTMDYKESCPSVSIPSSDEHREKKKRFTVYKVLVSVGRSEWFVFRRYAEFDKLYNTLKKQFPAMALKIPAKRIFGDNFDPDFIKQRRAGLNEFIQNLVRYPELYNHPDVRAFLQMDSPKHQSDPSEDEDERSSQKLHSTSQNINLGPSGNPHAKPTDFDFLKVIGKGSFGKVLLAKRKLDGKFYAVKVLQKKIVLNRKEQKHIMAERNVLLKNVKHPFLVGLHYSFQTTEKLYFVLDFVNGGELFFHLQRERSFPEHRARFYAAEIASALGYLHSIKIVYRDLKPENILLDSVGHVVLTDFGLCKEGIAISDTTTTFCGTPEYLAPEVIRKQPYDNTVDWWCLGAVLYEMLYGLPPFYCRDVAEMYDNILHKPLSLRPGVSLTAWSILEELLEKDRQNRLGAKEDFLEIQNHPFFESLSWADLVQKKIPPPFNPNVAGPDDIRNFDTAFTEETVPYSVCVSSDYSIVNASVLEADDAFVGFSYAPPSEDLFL
Method: as §1, §2, §3

GCK (h) = biological target: T3, GCK (h) (Homo sapiens, UniProt Q12851)
T3 construct: purchased Millipore
T3 sequence (Q12851 1-820): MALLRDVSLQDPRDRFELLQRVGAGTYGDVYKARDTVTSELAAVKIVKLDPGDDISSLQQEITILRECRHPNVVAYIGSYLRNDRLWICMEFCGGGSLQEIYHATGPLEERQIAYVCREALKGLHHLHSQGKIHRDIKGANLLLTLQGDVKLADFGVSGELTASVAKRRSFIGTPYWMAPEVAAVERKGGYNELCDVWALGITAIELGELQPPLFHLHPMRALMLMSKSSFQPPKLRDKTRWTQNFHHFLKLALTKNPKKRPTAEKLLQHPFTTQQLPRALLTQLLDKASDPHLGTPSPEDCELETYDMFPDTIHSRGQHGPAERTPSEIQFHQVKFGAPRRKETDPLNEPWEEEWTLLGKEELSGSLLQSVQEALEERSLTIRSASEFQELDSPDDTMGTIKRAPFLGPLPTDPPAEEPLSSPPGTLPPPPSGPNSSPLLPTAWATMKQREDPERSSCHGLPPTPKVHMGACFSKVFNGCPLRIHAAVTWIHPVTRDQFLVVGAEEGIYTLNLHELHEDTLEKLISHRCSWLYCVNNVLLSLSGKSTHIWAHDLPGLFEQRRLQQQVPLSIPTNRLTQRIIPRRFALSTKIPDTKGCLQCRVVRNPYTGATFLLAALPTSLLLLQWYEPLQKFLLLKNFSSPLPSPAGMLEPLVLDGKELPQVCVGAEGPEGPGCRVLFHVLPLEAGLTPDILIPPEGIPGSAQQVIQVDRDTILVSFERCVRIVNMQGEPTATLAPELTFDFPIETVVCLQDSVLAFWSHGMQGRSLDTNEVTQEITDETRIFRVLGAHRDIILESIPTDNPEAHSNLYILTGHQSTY
Method: as §1, §2, §3

CaMKIIδ (h) = biological target: T4, CaMKIIδ (h) (Homo sapiens, UniProt Q13557)
T4 construct: purchased Millipore
Method: as §1, §2, §3

T4 sequence (Q13557 whole entry): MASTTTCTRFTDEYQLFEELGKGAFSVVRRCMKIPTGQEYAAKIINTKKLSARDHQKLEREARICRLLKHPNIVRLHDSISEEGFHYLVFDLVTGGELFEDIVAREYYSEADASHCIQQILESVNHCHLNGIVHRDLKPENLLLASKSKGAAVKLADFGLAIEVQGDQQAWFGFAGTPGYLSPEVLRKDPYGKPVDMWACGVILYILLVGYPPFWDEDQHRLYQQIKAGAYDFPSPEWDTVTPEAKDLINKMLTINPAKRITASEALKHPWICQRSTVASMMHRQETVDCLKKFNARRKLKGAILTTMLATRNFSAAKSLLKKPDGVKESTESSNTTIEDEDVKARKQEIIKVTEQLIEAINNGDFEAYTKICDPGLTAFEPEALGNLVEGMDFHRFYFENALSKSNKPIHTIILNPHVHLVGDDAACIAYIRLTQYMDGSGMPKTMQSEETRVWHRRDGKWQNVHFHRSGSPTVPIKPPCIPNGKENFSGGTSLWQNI

| Sequence | % activity (PKG1β (h)) [%] | % activity (SGK3 (h)) [%] | % activity (GCK (h)) [%] | % activity (CaMKIIδ (h)) [%] |
| --- | --- | --- | --- | --- |
| FAKLAARLYRKALARQLGVAA [MMI-0300] | 50 | 10 | 70 | 1 |
| HRRIKAWLKKIKALARQLGVAA (Mammalian) [MMI-0500] | 24 | −3 | 30 | 1 |
| KAFAKLAARLYRKALARQLGVAA [MMI-0400] | 53 | 8 | 66 | 2 |
| YARAAARQARAKALNRQLGVA (Mammalian) [MMI-0200] | 57 | 58 | 99 | 2 |
